Data as given in the supplement of paper PMC10567573.

B1: ZNF232 (parent)
chain: GKAYGWCSELIRHRRVHARKEPSH
B2: GLTSCR2 (parent)
chain: FQRRNMIEPRERAKFKRKYKVKLV

Variants of: B1
Assay: protein stability index of a GFP-peptide fusion (GPS, HEK-293T) (PSI 1-6); higher = more stable
Settings: c terminus: a fixed tail appended
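Also: lentivirally expressed fusions sorted by FACS into six bins by GFP to DsRed ratio, PSI derived from sequencing read proportions per bin multiplied by bin number.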

Compared with GKAYGWCSELIRHRRVHARKEPGH [S23G], GKAYGWCSELIRHRRVHARKEPVH [S23V] is lower in protein stability index: 3.32 for the first, 2.82 for the second.

Going from GKAYGWCSELIRHRRVHARKEPCH [S23C] to GKAYGWCSELIRHRRVHARKEPQH [S23Q], the protein stability index rises from 2.58 to 2.98.

First: GKAYGWCSELIRHRRVHARKEPKH [S23K]
Second: GKAYGWCSELIRHRRVHARKEPYH [S23Y]
The protein stability index of the first is higher: 3.49 for the first, 2.19 for the second.

Going from GKAYGWCSELIRHRRVHARKEPMH [S23M] to GKAYGWCSELIRHRRVHARKEPDH [S23D], the protein stability index rises from 2.12 to 3.66.

First: GKAYGWCSELIRHRRVHARKEPIH [S23I]
Second: GKAYGWCSELIRHRRVHARKEPEH [S23E]
The protein stability index of the first is lower: 2.48 for the first, 3.92 for the second.

Going from GKAYGWCSELIRHRRVHARKEPFH [S23F] to GKAYGWCSELIRHRRVHARKEPTH [S23T], the protein stability index rises from 2.43 to 3.03.

First: GKAYGWCSELIRHRRVHARKEPWH [S23W]
Second: GKAYGWCSELIRHRRVHARKEPPH [S23P]
The protein stability index of the first is lower: 1.76 for the first, 2.95 for the second.

Going from GKAYGWCSELIRHRRVHARKEPHH [S23H] to GKAYGWCSELIRHRRVHARKEPNH [S23N], the protein stability index falls from 3.16 to 3.05.

Compared with GKAYGWCSELIRHRRVHARKEPAH [S23A], GKAYGWCSELIRHRRVHARKEPRH [S23R] is higher in protein stability index: 2.61 for the first, 2.93 for the second.

First: GKAYGWCSELIRHRRVHARKEPLH [S23L]
Second: GKAYGWCSELIRHRRVHARKEPSA [H24A]
The protein stability index of the first is lower: 2.54 for the first, 3.08 for the second.

Compared with GKAYGWCSELIRHRRVHARKEPSF [H24F], GKAYGWCSELIRHRRVHARKEPSN [H24N] is higher in protein stability index: 2.65 for the first, 3.65 for the second.

Compared with GKAYGWCSELIRHRRVHARKEPSM [H24M], GKAYGWCSELIRHRRVHARKEPSC [H24C] is higher in protein stability index: 2.5 for the first, 2.78 for the second.

First: GKAYGWCSELIRHRRVHARKEPSK [H24K]
Second: GKAYGWCSELIRHRRVHARKEPSS [H24S]
The protein stability index of the first is higher: 3.55 for the first, 3.07 for the second.

Going from GKAYGWCSELIRHRRVHARKEPSQ [H24Q] to GKAYGWCSELIRHRRVHARKEPSP [H24P], the protein stability index rises from 2.25 to 3.08.

Compared with GKAYGWCSELIRHRRVHARKEPSI [H24I], GKAYGWCSELIRHRRVHARKEPSY [H24Y] is lower in protein stability index: 2.49 for the first, 2.46 for the second.

Compared with GKAYGWCSELIRHRRVHARKEPSD [H24D], GKAYGWCSELIRHRRVHARKEPSG [H24G] is higher in protein stability index: 3.61 for the first, 3.7 for the second.

Going from GKAYGWCSELIRHRRVHARKEPST [H24T] to GKAYGWCSELIRHRRVHARKEPSV [H24V], the protein stability index rises from 2.97 to 3.54.

First: GKAYGWCSELIRHRRVHARKEPSR [H24R]
Second: GKAYGWCSELIRHRRVHARKEPSW [H24W]
The protein stability index of the first is higher: 3.15 for the first, 2.03 for the second.

Compared with GKAYGWCSELIRHRRVHARKEPSE [H24E], GKAYGWCSELIRHRRVHARKEPSL [H24L] is higher in protein stability index: 2.44 for the first, 2.68 for the second.

Going from GKAYGWCSELIRHRRVHARKEDSH [P22D] to GKAYGWCSELIRHRRVHARKETSH [P22T], the protein stability index falls from 3.14 to 3.02.

Compared with GKAYGWCSELIRHRRVHARKEASH [P22A], GKAYGWCSELIRHRRVHARKELSH [P22L] is lower in protein stability index: 3.39 for the first, 2.93 for the second.

Compared with GKAYGWCSELIRHRRVHARKEKSH [P22K], GKAYGWCSELIRHRRVHARKEFSH [P22F] is lower in protein stability index: 2.92 for the first, 1.8 for the second.

Compared with GKAYGWCSELIRHRRVHARKEWSH [P22W], GKAYGWCSELIRHRRVHARKERSH [P22R] is higher in protein stability index: 1.79 for the first, 3.17 for the second.

First: GKAYGWCSELIRHRRVHARKEQSH [P22Q]
Second: GKAYGWCSELIRHRRVHARKEESH [P22E]
The protein stability index of the first is lower: 3.38 for the first, 4.22 for the second.

Compared with GKAYGWCSELIRHRRVHARKECSH [P22C], GKAYGWCSELIRHRRVHARKEVSH [P22V] is higher in protein stability index: 2.52 for the first, 2.82 for the second.

First: GKAYGWCSELIRHRRVHARKENSH [P22N]
Second: GKAYGWCSELIRHRRVHARKEHSH [P22H]
The protein stability index of the first is lower: 2.98 for the first, 3.42 for the second.

Compared with GKAYGWCSELIRHRRVHARKEISH [P22I], GKAYGWCSELIRHRRVHARKEMSH [P22M] is higher in protein stability index: 2.27 for the first, 2.3 for the second.

Compared with GKAYGWCSELIRHRRVHARKEYSH [P22Y], GKAYGWCSELIRHRRVHARKESSH [P22S] is lower in protein stability index: 3.58 for the first, 3.21 for the second.

Compared with GKAYGWCSELIRHRRVHARKEGSH [P22G], GKAYGWCSELIRHRRVHARKIPSH [E21I] is lower in protein stability index: 2.71 for the first, 2.46 for the second.

Going from GKAYGWCSELIRHRRVHARKVPSH [E21V] to GKAYGWCSELIRHRRVHARKSPSH [E21S], the protein stability index rises from 3.1 to 3.3.

First: GKAYGWCSELIRHRRVHARKFPSH [E21F]
Second: GKAYGWCSELIRHRRVHARKGPSH [E21G]
The protein stability index of the first is lower: 2.04 for the first, 2.58 for the second.

Going from GKAYGWCSELIRHRRVHARKMPSH [E21M] to GKAYGWCSELIRHRRVHARKKPSH [E21K], the protein stability index rises from 2.37 to 3.15.

First: GKAYGWCSELIRHRRVHARKCPSH [E21C]
Second: GKAYGWCSELIRHRRVHARKTPSH [E21T]
The protein stability index of the first is lower: 2.36 for the first, 2.69 for the second.

First: GKAYGWCSELIRHRRVHARKHPSH [E21H]
Second: GKAYGWCSELIRHRRVHARKQPSH [E21Q]
The protein stability index of the first is lower: 2.63 for the first, 2.69 for the second.

Going from GKAYGWCSELIRHRRVHARKNPSH [E21N] to GKAYGWCSELIRHRRVHARKAPSH [E21A], the protein stability index falls from 3.24 to 2.92.

First: GKAYGWCSELIRHRRVHARKRPSH [E21R]
Second: GKAYGWCSELIRHRRVHARKPPSH [E21P]
The protein stability index of the first is higher: 3.3 for the first, 2.79 for the second.

First: GKAYGWCSELIRHRRVHARKDPSH [E21D]
Second: GKAYGWCSELIRHRRVHARKLPSH [E21L]
The protein stability index of the first is higher: 2.75 for the first, 1.91 for the second.

Compared with GKAYGWCSELIRHRRVHARKWPSH [E21W], GKAYGWCSELIRHRRVHARKYPSH [E21Y] is higher in protein stability index: 2.19 for the first, 2.81 for the second.

Going from GKAYGWCSELIRHRRVHARNEPSH [K20N] to GKAYGWCSELIRHRRVHARWEPSH [K20W], the protein stability index falls from 2.58 to 1.82.

Going from GKAYGWCSELIRHRRVHARVEPSH [K20V] to GKAYGWCSELIRHRRVHARTEPSH [K20T], the protein stability index rises from 3.22 to 3.28.

First: GKAYGWCSELIRHRRVHARPEPSH [K20P]
Second: GKAYGWCSELIRHRRVHARLEPSH [K20L]
The protein stability index of the first is higher: 2.62 for the first, 1.93 for the second.

First: GKAYGWCSELIRHRRVHARQEPSH [K20Q]
Second: GKAYGWCSELIRHRRVHARMEPSH [K20M]
The protein stability index of the first is higher: 2.8 for the first, 2.18 for the second.

First: GKAYGWCSELIRHRRVHARREPSH [K20R]
Second: GKAYGWCSELIRHRRVHARSEPSH [K20S]
The protein stability index of the first is lower: 2.12 for the first, 2.86 for the second.

GKAYGWCSELIRHRRVHARYEPSH [K20Y] gave a protein stability index of 1.86.

Variants of: B2
Assay: as above
Settings: c terminus: a fixed tail appended

Going from FQRRNCIEPRERAKFKRKYKVKLV [M6C] to FQRRNFIEPRERAKFKRKYKVKLV [M6F], the protein stability index rises from 1.74 to 1.93.

Going from FQRRNEIEPRERAKFKRKYKVKLV [M6E] to FQRRNGIEPRERAKFKRKYKVKLV [M6G], the protein stability index falls from 3.08 to 2.57.

Going from FQRRNIIEPRERAKFKRKYKVKLV [M6I] to FQRRNDIEPRERAKFKRKYKVKLV [M6D], the protein stability index rises from 2.25 to 2.31.

Variant FQRRNHIEPRERAKFKRKYKVKLV [M6H] has a protein stability index of 2.33.
